Data as given in patent US11653679B2, “High-purity steviol glycosides” (PureCircle Sdn Bhd, priority 2014, dated 2023).
Each block holds one molecule with its values, some of them ahead of it.

Experiments:
[1] = Solubility of reb M in water and solvents; type: physicochemical
Protocol: Other properties of the pure reb M compound include a melting point of 249-250° C., and a specific rotation of [α]D^25−19.0° in 50% ethanol (C=1.0). The solubility of reb Min water is around 0.3%, and increases with an increase in temperature.
Reb M is soluble in diluted solutions of methanol, ethanol, n-propanol, and isopropanol. However, it is insoluble in acetone, benzene, chloroform, and ether.

[2] = Heat and pH stability of reb M; type: physicochemical
[3] = Sweetness of reb M compared to a 10% sucrose solution
Excerpt: The high purity reb M obtained in this invention, having a molecular weight of 1291.29, a molecular formula of C56H90O33, CAS registry number 1220616-44-3, and the structure presented in FIG. 1, is in the form of a white and odorless powder. The compound is about 200 times sweeter than sugar when compared to a 10% sucrose solution.

[4] = Directed evolution of UGT76G1, Rebaudioside D to Rebaudioside X, round 2 (Example 41); type: biochemical; settings: baseline clone Round1-Var94 defined as 100%, 100 μL lysate, 0.5 mM Rebaudioside D, 30° C., pH 7.2
Protocol: Lysis was performed by addition of Bugbuster® Master mix (Novagen®) to the thawed cells and the lysate was recovered by centrifugation. Activity tests were performed with 100 μL of fresh lysate that was added to a solution of Rebaudioside D (final concentration 0.5 mM), MgCl2 (final concentration 3 mM) and UDP-Glucose (final concentration 2.5 mM) in 50 mM phosphate buffer pH 7.2.
The reaction was allowed to run at 30° C. and samples were taken after 2, 4, 7 and 24 h. to determine conversion and initial rate by HPLC (CAD detection) using the analytical method that was described above for the transformation of Rebaudioside D to Rebaudioside X. In parallel the experiments were performed with baseline clone, Round1-Var94. The conversion after 22 h. and initial rate for this baseline clone was defined as 100% and the normalized conversions and initial rates for the round 2 clones are depicted in the following table: […]

[5] = Directed evolution of UGT76G1, Rebaudioside D to Rebaudioside M, round 1 (Example 26); type: biochemical; settings: 100 μL fresh lysate, 0.5 mM Rebaudioside D, 30° C., pH 7.2
Summary of the method: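 Cleared cell lysate (Bugbuster) incubated with 0.5 mM Rebaudioside D, 3 mM MgCl2 and 2.5 mM UDP-glucose in 50 mM phosphate pH 7.2 at 30 °C. Samples at 2, 4, 7 and 24 h analysed by HPLC-CAD for conversion and initial rate.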

[6] = Activity of UGT76G1_Sc for conversion of Rebaudioside D to Rebaudioside M (Example 35); type: biochemical; settings: 21 h., based on initial concentration of Rebaudioside D
Protocol: UGT76G1_Sc was prepared according to EXAMPLE 34. Activity tests were performed at 2 mL scale with 200 μL of lysate for the transformation of Rebaudioside D using 0.5 mM of substrate, 2.5 mM of UDP-Glucose and 3 mM MgCl2 in 50 mM Sodium Phosphate buffer at pH 7.2. Samples were taken and analyzed by HPLC. The corresponding chromatogram is depicted in FIG. 64.

[7] = Catalytic reaction Rebaudioside A to Rebaudioside D with in-vitro produced UGT91D2 (Example 5); type: biochemical; settings: after 120 h, in-vitro produced UGT91D2, 0.1 mM Rebaudioside A, 30° C.
Protocol: The total volume of the reaction was 0.5 mL with the following composition: 50 mM sodium phosphate buffer pH 7.2, 3 mM MgCl2, 3.8 mM UDP-glucose, 0.1 mM Rebaudioside A and 180 μL of in-vitro produced UGT91D2. The reactions were run at 30° C. on an orbitary shaker at 135 rpm. For each sample, 450 μl of reaction mixture was quenched with 45 μL of 2N H2SO4 and 405 μL of 60% MeOH. After centrifugation, the supernatant was analyzed by HPLC (CAD). HPLC indicated a 4.7% conversion of rebaudioside A to rebaudioside D after 120 h.

[8] = Transformation of Rubusoside to Stevioside with in-vivo preparations of UGT91D2 (Example 19); type: biochemical; settings: per mL of lysate; 1 U transforms 1 μmol of substrate in 1 hour at 30° C. and pH 7.2
Protocol: Activity tests were performed at 5 mL scale with 1000 μL of lysate for the transformation of Rubusoside to Stevioside using 0.5 mM of substrate, 2.5 mM of UDP-Glucose and 3 mM MgCl2 in 50 mM Sodium Phosphate buffer at pH 7.2. Samples were taken and analyzed by HPLC.

solubility in acetone, benzene, chloroform, and ether [1]: insoluble
solubility in diluted solutions of methanol, ethanol, n-propanol, and isopropanol [1]: soluble
solubility in water ([1]; increases with an increase in temperature): around 0.3%
heat and pH stability [2]: heat and pH-stable
Molecule: C=C1C[C@@]23CC[C@H]4[C@@](C)(CCC[C@@]4(C)C(=O)O[C@@H]4O[C@H](CO)[C@@H](O)[C@H](O[C@@H]5O[C@H](CO)[C@@H](O)[C@H](O)[C@H]5O)[C@H]4O[C@@H]4O[C@H](CO)[C@@H](O)[C@H](O)[C@H]4O)[C@@H]2CC[C@]1(O[C@@H]1O[C@H](CO)[C@@H](O)[C@H](O[C@@H]2O[C@H](CO)[C@@H](O)[C@H](O)[C@H]2O)[C@H]1O[C@@H]1O[C@H](CO)[C@@H](O)[C@H](O)[C@H]1O)C3 [reb M, Rebaudioside M]
sweetness relative to sugar [3]: about 200 times sweeter than sugar

B1: UGT76G1var94: UGT76G1 variant, mutations Q266E_P272A_R334K_G348P_L379G (protein, UniProt Q6VAB4 1-458, looked up, variant Q266E P272A R334K G348P L379G)
UDP-glycosyltransferase 76G1: MENKTETTVRRRRRIILFPVPFQGHINPILQLANVLYSKGFSITIFHTNFNKPKTSNYPHFTFRFILDNDPQDERISNLPTHGPLAGMRIPIINEHGADELRRELELLMLASEEDEEVSCLITDALWYFAQSVADSLNLRRLVLMTSSLFNFHAHVSLPQFDELGYLDPDDKTRLEEQASGFPMLKVKDIKSAYSNWQILKEILGKMIKQTKASSGVIWNSFKELEESELETVIREIPAPSFLIPLPKHLTASSSSLLDHDRTVFEWLDQQAPSSVLYVSFGSTSEVDEKDFLEIARGLVDSKQSFLWVVRPGFVKGSTWVEPLPDGFLGERGKIVKWVPQQEVLAHPAIGAFWTHSGWNSTLESVCEGVPMIFSDFGGDQPLNARYMSDVLKVGVYLENGWERGEIANAIRRVMVDEEGEYIRQNARVLKQKADVSLMKGGSSYESLESLVSYISSL
Normalized conversion Reb D to Reb X after 22 h. [4]: 100%
Normalized initial rate (0-4 h) [4]: 100%
conversion Reb D to Reb M after 24 h [5]: 72.0%
initial rate [5]: 7.9E+07 Reb M area/min

B2: UGT76G1_Sc: UGT76G1 produced in S. cerevisiae, lysate (protein, UniProt Q6VAB4 1-458, looked up)
UDP-glycosyltransferase 76G1: MENKTETTVRRRRRIILFPVPFQGHINPILQLANVLYSKGFSITIFHTNFNKPKTSNYPHFTFRFILDNDPQDERISNLPTHGPLAGMRIPIINEHGADELRRELELLMLASEEDEEVSCLITDALWYFAQSVADSLNLRRLVLMTSSLFNFHAHVSLPQFDELGYLDPDDKTRLEEQASGFPMLKVKDIKSAYSNWQILKEILGKMIKQTKASSGVIWNSFKELEESELETVIREIPAPSFLIPLPKHLTASSSSLLDHDRTVFQWLDQQPPSSVLYVSFGSTSEVDEKDFLEIARGLVDSKQSFLWVVRPGFVKGSTWVEPLPDGFLGERGRIVKWVPQQEVLAHGAIGAFWTHSGWNSTLESVCEGVPMIFSDFGLDQPLNARYMSDVLKVGVYLENGWERGEIANAIRRVMVDEEGEYIRQNARVLKQKADVSLMKGGSSYESLESLVSYISSL
modifications: S. cerevisiae lysate
Rebaudioside D conv. (reaction time) ([6]; 200 μL lysate, 0.5 mM substrate, 2.5 mM UDP-Glucose, pH 7.2): 85% (21 h.)
Rebaudioside M selectivity [6]: 100%

B3: UGT91D2: UDP-glucosyltransferase, Genbank accession no. ACE87855.1 (protein, UniProt B3VI56 1-473, looked up)
UDP-glycosyltransferase 91D2: MATSDSIVDDRKQLHVATFPWLAFGHILPYLQLSKLIAEKGHKVSFLSTTRNIQRLSSHISPLINVVQLTLPRVQELPEDAEATTDVHPEDIPYLKKASDGLQPEVTRFLEQHSPDWIIYDYTHYWLPSIAASLGISRAHFSVTTPWAIAYMGPSADAMINGSDGRTTVEDLTTPPKWFPFPTKVCWRKHDLARLVPYKAPGISDGYRMGLVLKGSDCLLSKCYHEFGTQWLPLLETLHQVPVVPVGLLPPEVPGDEKDETWVSIKKWLDGKQKGSVVYVALGSEVLVSQTEVVELALGLELSGLPFVWAYRKPKGPAKSDSVELPDGFVERTRDRGLVWTSWAPQLRILSHESVCGFLTHCGSGSIVEGLMFGHPLIMLPIFGDQPLNARLLEDKQVGIEIPRNEEDGCLTKESVARSLRSVVVEKEGEIYKANARELSKIYNDTKVEKEYVSQFVDYLEKNTRAVAIDHES
conversion of rebaudioside A to rebaudioside D [7]: 4.7%

B4: Example 18: UGT91D2 lysate using pET30a+ plasmid and ArcticExpress expression strain (protein, UniProt B3VI56 1-473, looked up)
UDP-glycosyltransferase 91D2: MATSDSIVDDRKQLHVATFPWLAFGHILPYLQLSKLIAEKGHKVSFLSTTRNIQRLSSHISPLINVVQLTLPRVQELPEDAEATTDVHPEDIPYLKKASDGLQPEVTRFLEQHSPDWIIYDYTHYWLPSIAASLGISRAHFSVTTPWAIAYMGPSADAMINGSDGRTTVEDLTTPPKWFPFPTKVCWRKHDLARLVPYKAPGISDGYRMGLVLKGSDCLLSKCYHEFGTQWLPLLETLHQVPVVPVGLLPPEVPGDEKDETWVSIKKWLDGKQKGSVVYVALGSEVLVSQTEVVELALGLELSGLPFVWAYRKPKGPAKSDSVELPDGFVERTRDRGLVWTSWAPQLRILSHESVCGFLTHCGSGSIVEGLMFGHPLIMLPIFGDQPLNARLLEDKQVGIEIPRNEEDGCLTKESVARSLRSVVVEKEGEIYKANARELSKIYNDTKVEKEYVSQFVDYLEKNTRAVAIDHES
modifications: E. coli lysate
notes: UGT91D2 lysate using pET30a+ plasmid and ArcticExpress expression strain
Transformation activity Rubusoside to Stevioside [8]: 21 mU mL^−1

B5: Example 15: UGT91D2 lysate using pMAL plasmid and BL21 expression strain (protein, UniProt B3VI56 1-473, looked up)
UDP-glycosyltransferase 91D2: MATSDSIVDDRKQLHVATFPWLAFGHILPYLQLSKLIAEKGHKVSFLSTTRNIQRLSSHISPLINVVQLTLPRVQELPEDAEATTDVHPEDIPYLKKASDGLQPEVTRFLEQHSPDWIIYDYTHYWLPSIAASLGISRAHFSVTTPWAIAYMGPSADAMINGSDGRTTVEDLTTPPKWFPFPTKVCWRKHDLARLVPYKAPGISDGYRMGLVLKGSDCLLSKCYHEFGTQWLPLLETLHQVPVVPVGLLPPEVPGDEKDETWVSIKKWLDGKQKGSVVYVALGSEVLVSQTEVVELALGLELSGLPFVWAYRKPKGPAKSDSVELPDGFVERTRDRGLVWTSWAPQLRILSHESVCGFLTHCGSGSIVEGLMFGHPLIMLPIFGDQPLNARLLEDKQVGIEIPRNEEDGCLTKESVARSLRSVVVEKEGEIYKANARELSKIYNDTKVEKEYVSQFVDYLEKNTRAVAIDHES
modifications: MBP fusion from pMAL, E. coli lysate
notes: UGT91D2 lysate using pMAL plasmid and BL21 expression strain
Transformation activity Rubusoside to Stevioside [8]: 9 mU mL^−1

B6: Example 17: UGT91D2 lysate using pET30a+ plasmid and Tuner (DE3) expression strain (protein, UniProt B3VI56 1-473, looked up)
UDP-glycosyltransferase 91D2: MATSDSIVDDRKQLHVATFPWLAFGHILPYLQLSKLIAEKGHKVSFLSTTRNIQRLSSHISPLINVVQLTLPRVQELPEDAEATTDVHPEDIPYLKKASDGLQPEVTRFLEQHSPDWIIYDYTHYWLPSIAASLGISRAHFSVTTPWAIAYMGPSADAMINGSDGRTTVEDLTTPPKWFPFPTKVCWRKHDLARLVPYKAPGISDGYRMGLVLKGSDCLLSKCYHEFGTQWLPLLETLHQVPVVPVGLLPPEVPGDEKDETWVSIKKWLDGKQKGSVVYVALGSEVLVSQTEVVELALGLELSGLPFVWAYRKPKGPAKSDSVELPDGFVERTRDRGLVWTSWAPQLRILSHESVCGFLTHCGSGSIVEGLMFGHPLIMLPIFGDQPLNARLLEDKQVGIEIPRNEEDGCLTKESVARSLRSVVVEKEGEIYKANARELSKIYNDTKVEKEYVSQFVDYLEKNTRAVAIDHES
modifications: E. coli lysate
notes: UGT91D2 lysate using pET30a+ plasmid and Tuner (DE3) expression strain
Transformation activity Rubusoside to Stevioside [8]: 28 mU mL^−1
